Measurements: the nanobody polyreactivity screen of Harvey et al. (2022)

Assay: yeast display, Sf9 membrane polyspecificity reagent, FACS + sequencing; frameworks hold sequencing errors
Outline: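 Genes from sorted yeast were amplified by colony PCR, read by MiSeq 2 × 250 sequencing and filtered on CDR length. These cells carried a synthetic nanobody library in Saccharomyces cerevisiae BJ5465 and were sorted by FACS into low and high (top ~1%) gates on anti-HA and streptavidin fluorescence. Polyreactivity is labelled according to the gate of origin.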

| Sequence | polyreactivity (PSR sort gate) |
| --- | --- |
| QVQLVESGGGLFQAGGSLRLSCAASGFTCSGYAMGWYRPAPGKERELVAGISASAGSTYADSVKGRFTISRDNAKNTVYLQMNSLKPEDTAVYYCAADLSFKAAIWFNEYGYWGQGTQVTVSS | low polyreactivity |
| QVQLVESGGGLVQAGGSLRLSCAASGSIFTFNAMGWYRQAPGKERELDAGISWRTSSTSYADSVKGRFTNSRDNAKNTVYLQMNSLKPEDTAVYYCATEDSWGYEEVDYWGQGTQVTVSS | low polyreactivity |
| QVQLVESGGGLVQAGGSLRLSCAASGSIFPYYAMGWNRQAPGKERELVATITSRGGSTYYADSVKGRFTISRDNAKNTVYLQMNSLKPEDTAVYYCAKEYRYYRRRYDYWGQGTQVTVSS | high polyreactivity |
| QVQLVESGGGLVQAGGSLRLSCAASGRIFDRYAMGWYRQAPGKERELVAAISDRGGSTYYADSVKGRFTISRDNAKNTVYLQMNSLKPEDTAVFYCAKGPSGVRTYREYDSWGQGTQVTVSS | low polyreactivity |
| QVQLVESGGGLVQAGGSLRLSCAASGFTFGSYAMGWYRQAPGKERELVAAISGRGGSTYYADSVKGRFTISRDNAKNTVYLQMNSLKPEDTAVYYCATDYSRTFDYWGQGTQVTVSS | high polyreactivity |
| QVQLVESGGGLVQAGGRLRLSCAASGRTFTVYAMGWYRQAPGKEREFVAAITERGGSTYYADSVKGRFTISRDNAKNTVYLKMNSLKPEDTSVYYFAAVFYWRPGWYVRFDYWGQGTQVTVSS | low polyreactivity |
| QVQLVESGGGLVQAGGSLRLSCAASGSTFGGYAMGWYRPAPGKERELVAAINRSGARTYYADSVKGRFTISRDNAKNTVYLQMNSLKPEDTAVYYCNKAQGSHGAYDYWGQGTQVTVSS | high polyreactivity |
| QVQLVESGGGLVQAGGSLRLTCAASGRIFGVYVMGWYRQAPGKERELVAAISWGGGTYYADSVKGRFTISRDNAKNNVYLQMNSLKPEDTSVYYCNAESYYTMYYWGQGTQVNVSS | low polyreactivity |
| QDQLVDSGGGLVQAGGSLRLSCAASGRIFSGNGMGWYSPAPGKERELVASISSGGRTYYADSVKGRFTISRDNAKITVYLQMNSLKPEDTAVYYCNRVASVRARDYDYWGQGTQVTVSS | high polyreactivity |
| QVHPVESGGGLVQAGGSLRLSCAASGGILYRNAMGWYRQAPGKERELVAAISSRGGSTYYADSVKGRFTISRDNAKNTVYLQMNSLKPEDTAVYYCAVVNRSAQSLKYEYWGQGTQVTVSS | high polyreactivity |
| QVQLVESGGGLVQAGGSLRLSCAASGSTFVNNAMGWSREARGKERELVAAIRSSDGRTYYADSVKGRFTISRDKAKNTVYLQMNSLKPEDTAVDYCATAVGTKYRTRIFEYYYWGQGTQVTVSS | high polyreactivity |
| QVQLVESGGGLVQAGGSLRLSCAASGITFDRNVMGWYRKSPGKETELVAAISKSGGRTYYADSVKGRFTISRDIAKNTVYLQMNSLKTEDTAVYDCNADFYSRKSLHQYDYWGQGTQVTVSS | high polyreactivity |
| QVQLVESGGGLVQAGGSLRLSCAASGFIFKRYGMGWYRQAPGKERELVAAISYSGGSTYYADSVKGRFTISRDNAKNTVYLQMNSLKPEDTAVYYCKATIHYNAGWTMGSWGQGTQVTVSS | high polyreactivity |
| QVQLVESCGGLVQAGGSLRLSCAASGLTYRYYAMGWYRKAPGKERELVAAITSSGTSTYYADSVKGRFTISRDNAKNTVSLQMNSLKAEDTAVSYCAVRQSQKYGLFYYGGQGTQVTVSS | high polyreactivity |
| QVQLEESGGGLVQAGGSLRLSCAASGRIFYRYAMGWYRQAPGKERELVAAISWSGGSTNYADSVRGRFTISRDNAKNTVYLQMNSLKPEDTAVYYCAAKYRSIRESATYYYWGQGTQVTVSS | high polyreactivity |
| HVQLVESGGGLVQAGGSLRLSCAASGLIFSAYAMGWYRQAPGKEREFVAAISRSGGITFYADSVKGRFTISRDNAKNTVYLQMNSLKPEDTAVYYCAARLYKYRRGGGYFWGQGTKVTVSS | high polyreactivity |
| QVQLEESGGGLVQAAGRLRVSCAASGYIYGYAMGWYKQAPAKEMELVAAITRGGGRTYYADSVKGRFTISRDNAKNTVYFQMHSLKPVDTAVYYCAVAANRGKGFYEYYHWGQGTQVTVSS | high polyreactivity |
| QVQLVESGGGLVQAGGSLRLSCAASGRTFNSYAMGWYRQAPGKERELVAGITGTGGSTYYADSVKGRFTISRDNAKNTVYLQMNSLKPEDTAVYYCNALRRCQRYWDPYGYDYWGQGTQVTVSS | high polyreactivity |
| QVQLVESGGGLVQAGGSLRLSCAASGSTFWSYAMGWYRQAPGKERELVASISRRGGSTSYADSVKGRFTISRDNAKNTVYLQMNSLKPEDTAVYYCAARLLRTTKPRSGYGYWGQGTQVTVSS | high polyreactivity |
| QVQLVESGGGLDQAGGSLRLSCPASGNIFTGNAMGWYRQAPGKEREFVAAISSVGGSTYYADSVKGRFTISRDNAKNTVYLQMNSLKPEDTAVYYCAASRVRYSYGYPYYYWGQGTQVTVSS | high polyreactivity |
| QVQLVESGGGLVQAGGRLRISCAASGSIFEINAMGWYRQAPGKERELVAAITGSGGSTHYADSVKGRFPISRDNAKNTVYLQMNCLKPEDTAVYYCAAVPRYQYGYLGQGTQVTVSS | low polyreactivity |
| QVQLVESGGGLVQAGGSLRLSCAASGRTLGYNAMGWYRQAPGKARELVASINSGVSTNYADSVQGRFTISRDNAKNTVYLQMNSLKPEDTAVYYCAAEKYGRGAGREGWESDYWGQGTQVTVSS | low polyreactivity |

| Sequence | polyreactivity (PSR sort gate) |
| --- | --- |
| QVQLVESGGGLVQAGGSLRLSCAASGLIFYWNAMGWYRQAPGKERELVAGITSGGDTNYADSVKGRFTISRDNAKNTVYLQMNSLKPEDTAVYDCAAEGFRGYGYWGQGTQVTVSS | low polyreactivity |
| QVQLVESGGGLVQAGGSLRLSCAASGSIFYWYAMGWYRQAPGKERELVATNRYRGGNTYYADSVKGRFTISRDNAMNTVYLQMNSLKAEDTAVYYADFVKFCKYYQRYDYWGQGTQVTVSS | high polyreactivity |
| QVQLVESGGGLVQAGGSLRLSCAASGSIFPWYAMGWYRQAPGKEKELVAAIRWRDGRTYYADSVKGRFTISRDNAKNTVYLQMNSLKPEDTAVYYCAAVSTDKYVYGVDVYLYDYWGQGTQVTVSS | low polyreactivity |
| QVQLVESGGGLVQAGGRLRLSCAASGYIFNYDMGWYRPAPGKERELVAAINYSGRTYYADSVKGRFTISRDNAKNTVYLQMNRLKAEDTAVYYCAARIIVDDVGTKYYYWGQGTQVTVSS | high polyreactivity |
| QVQLVESGGGLVQAGGSLRLSCAASGRIFYRYAMGWYRQAPGKERELVATITNGGSTNYADSVKGRFTISRDNAMITVYLQMNSLKPEDTAVYYCAASRSRYSVNCYNYWGQGTQVTLSS | high polyreactivity |
| QVQLVESGGGLVQAGGSLRLSSAASGFIFIINAMGWYRQAPGKEREFVAAITGSGGSTYYADSVKGRFTISRDNAKNTVYLQMNSLKPEDTAVYYCANVGPYYSGKVYGRTYYSRYGYWGQGTQVTVSS | low polyreactivity |
| QVQLVESGGGLVQAGGSLRLSCAASGGTFYFNAMGWYRQAPGKERELVATIRYSGGSTYYADSVKGRFTISRDNAKNTVYLQMNSLKPEDTAVYYCNARPRYLSPYRPFKYNYWGQGTQVTVSS | high polyreactivity |
| QVQIVESGGGLVQAGGSLRLSCAASGFTFGHYAMGWYRQAPGKERELVAAISYSGVRTYYADSVKGRFTISRDNAKNTVYLQMNSLKPEDTAVYYCNKYPAHYQTRRYDYWGHGTQVTVSS | high polyreactivity |
| QVQLVESGGGLVQAGGSLRLSCAASGYILWNAIGWYRQAPGKERELVAAITSGGSTYYADSVKGRFSISRDNAKNTVYLQMNSRKPEDTAVYDCNQESYFDTYRRYDSWGQGTQETVSS | low polyreactivity |
| QVQLVESGGVLVQAGGSLRLSCAASGFIFPYYAMGWYRPAPGKETELVAAIDQSGDSTYYADSVKGRFTISRDNAKNTVYLQMNSLKPEDTAVFYCAARAVGGVRGYRYDYWGQGTQVTVSS | high polyreactivity |
| QVQLVESGGGLVQAGGSLRLSCAATGSTFYRNAMGWYRQAPGKEREFVAAISFRGGGTYADSVKGRFTISRDNAKNTVFLQMNSLKPEDTAVYYCADDHLSYRRRYEYWGQGTQVTVSS | low polyreactivity |
| QVQLVESGGGLVQAGGSLRLSCAASGSTFSYNAMGWYRQAPGKERELVAAITSRGGSTRYADSVKGRFTISRDNAKNTVYLQMNSLKPEDTAVYYCARPYSYYPYSTVNYWGQGTQVTVSS | high polyreactivity |
| QVQLVESGGCLVQAGGSLRLSCAASGSIFDSNPKGWYRQAPGKERELVAAITGSGTSTYYADSVKGRFTISRDNAKNTVYLQMNSLKPEDTALNYCAAAPEYLTDHDYWGQGTQVTVSS | low polyreactivity |
| QVQLVESGGGLVQAGGSLRLSCAASGRIFRDYGMGWYRQAPGKERELVAAINTSGRTYYADSVKGRFTISRDNAKNTVYLQMNSLKPEDTAVYYCATTSRELGELRIFDYWGQGSQVTVSS | low polyreactivity |
| QVQLVESGGGLVQAGGSLRLSCAASGRIFRYYAMGWYRQAPGKERELVAAITSSGSNTYYADSVKGRFTISRDNAKNTVYLQMNSLKPEDTAVYYCNARWRLVSSGFDGGYWGQGTQVTVSS | high polyreactivity |
| QVQLVESGGGLVQAGGSLRLTCAASGNTFVSNAMGWYRQAPGKERELVAAINSGGSTNYADSVKGRFTISRDNAKNTVYLQMNSLKPEDTAVYYCNKDYDYPQRYWMDFWGQGTQVTVSS | low polyreactivity |
| QVQLVESGGGLVQAGGSLRLSCAASGRILGTNAKGWYRQAPGKERELVAAISRGGSTYYADSVKGRFTISRDNANNTVYLQMNSLKPEDTAVFYCAVTVLSKRRYYYWGQGTQVTVSS | high polyreactivity |
| QVQLVESGGGLVQAGGSLRLSCAASGFTIVTYAMGWYRQAPGKERELVAAISKSGGTTYYADSVKGRFTISRDNAKNTVYLQMNSLKPEDTAVYYCNKRWYIARPVDRYRYYYWGQGTQVTVSS | high polyreactivity |
| QVQLVESGGGLVQAGGSLRLSCAASGFTFVKYAMGWYRQAPGKERELVAVISRRGGSTYYADSVKGRFTISRDNAKNTVYLQMNSLKPEDTAVYYCAAKVALPRTQEWEYGYWGQGTQVTVSS | high polyreactivity |
| QVQLQESGGLVQAGGSLRLSCAASGSISGRNVMGWYRQAPGKEREFVASITDGSSTNYADSVKGRFTISRDNAKNTVFLQMNSLKPKDTAVYYCAAYAQGAKSFGYWGRGTQVTVSS | low polyreactivity |
| QVQLVESGGGLVQAGGSLRLSCAASGITFTRNAMGWYRQAPGKERELVATISGSGGGTYYADSVKGRFTISRDNAKNTVYLQMNSLKPEDTAVYYCNARRWYYWQGTARYDYWGQGTQVTVSS | low polyreactivity |
